The results in this text go back to paper PMC10286367.

B1: mouse full-length p65-HA [mouse] / glycogen synthase kinase 3β (Gsk3β) [mouse (endogenous in hippocampal tissue)] (parent)
chain 1: MDDLFPLIFPSEPAQASGPYVEIIEQPKQRGMRFRYKCEGRSAGSIPGERSTDTTKTHPTIKINGYTGPGTVRISLVTKDPPHRPHPHELVGKDCRDGYYEADLCPDRSIHSFQNLGIQCVKKRDLEQAISQRIQTNNNPFHVPIEEQRGDYDLNAVRLCFQVTVRDPAGRPLLLTPVLSHPIFDNRAPNTAELKICRVNRNSGSCLGGDEIFLLCDKVQKEDIEVYFTGPGWEARGSFSQADVHRQVAIVFRTPPYADPSLQAPVRVSMQLRRPSDRELSEPMEFQYLPDTDDRHRIEEKRKRTYETFKSIMKKSPFNGPTEPRPPTRRIAVPTRNSTSVPKPAPQPYTFPASLSTINFDEFSPMLLPSGQISNQALALAPSSAPVLAQTMVPSSAMVPLAQPPAPAPVLTPGPPQSLSAPVPKSTQAGEGTLSEALLHLQFDADEDLGALLGNSTDPGVFTDLASVDNSEFQQLLNQGVSMSHSTAEPMLMEYPEAITRLVTGSQRPPDPAPTPLGTSGLPNGLSGDEDFSSIADMDFSALLSQISS
chain 2: MSGRPRTTSFAESCKPVQQPSAFGSMKVSRDKDGSKVTTVVATPGQGPDRPQEVSYTDTKVIGNGSFGVVYQAKLCDSGELVAIKKVLQDKRFKNRELQIMRKLDHCNIVRLRYFFYSSGEKKDEVYLNLVLDYVPETVYRVARHYSRAKQTLPVIYVKLYMYQLFRSLAYIHSFGICHRDIKPQNLLLDPDTAVLKLCDFGSAKQLVRGEPNVSYICSRYYRAPELIFGATDYTSSIDVWSAGCVLAELLLGQPIFPGDSGVDQLVEIIKVLGTPTREQIREMNPNYTEFKFPQIKAHPWTKVFRPRTPPEAIALCSRLLEYTPTARLTPLEACAHSFFDELRDPNVKLPNGRDTPALFNFTTQELSSNPPLATILIPPHARIQAAASPPANATAASDTNAGDRGQTNNAASASASNST

In assay [1] the parent is B1. The assay is described as follows: co-IP with Gsk3β followed by WB, band quantification. The conditions noted are these: with glycogen synthase kinase 3β (Gsk3β) [mouse (endogenous in hippocampal tissue)]; p65-HA variant co-expressed with Ogt-Flag and Gsk3β; n = 3 independent experiments; parent: 1; read off a plot.
In assay [2] the parent is B1. The assay is described as follows: co-IP with HA (p65) followed by WB, band quantification. The note with it: with glycogen synthase kinase 3β (Gsk3β) [mouse (endogenous in hippocampal tissue)]; p65-HA variant co-expressed with Ogt-Flag and Gsk3β; n = 3 independent experiments; parent: 1; read off a plot.

Regarding chain 1 S374A, the response (relative protein level (HA / Gsk3β)) in assay [1] was 1.1. Moreover, in assay [2], the response (relative protein level (Gsk3β / HA)) was determined as 1.

With chain 1 S384A, the response (relative protein level (HA / Gsk3β)) in assay [1] is 2.4. Further, the response (relative protein level (Gsk3β / HA)) in assay [2] was determined as 2.1.

Consider chain 1 S370A, for which the response (relative protein level (HA / Gsk3β)) in assay [1] was determined as 1. Further, in assay [2], the response (relative protein level (Gsk3β / HA)) came to 1.1.

Regarding chain 1 S396A, the response (relative protein level (HA / Gsk3β)) in assay [1] came to 1. In assay [2], the response (relative protein level (Gsk3β / HA)) was found to be 1.1.
